{"source": "patent US10648979B2", "about": "“Molecular probes for detecting gram-negative bacteria in vitro and in vivo” (priority 2014, dated 2020)", "key": {"[1]": {"test_system": "panel of bacteria (P. aeruginosa, A. baumannii, S. maltophilia, K. pneumoniae, E. coli, H. influenzae, MRSA, MSSA, S. pneumoniae)", "assay": "In vitro labelling of bacteria by laser scanning confocal microscopy", "assay_type": "cell-based", "protocol": "(§1) In vitro labelling was assessed on benchtop confocal in the presence of compound with bacteria and labelling was compared to NBD-UBINle which served as a reference control for bacterial labelling. […] For the ex vivo and in vivo ovine lung experiments each compound was assessed in a control lung segment (instilled with 2 ml PBS) or a bacterial segment (instilled with 2 ml of 2 optical density of bacteria). Following bacterial instillation, the compound was administered to the segment of interest and this was imaged by probe based confocal laser endomicroscopy (FCFM)."}, "human neutrophils": {"test_system": "human neutrophils", "assay": "Labelling of isolated human neutrophils (confocal)", "assay_type": "cell-based", "protocol": "(§2) All compounds have undergone biological assessment.\n(§3) Bacteria were prepared and counterstained with Syto 82 nucleic acid stain (Invitrogen, Calif., USA) in a shaking heat block at 37° C. and 350 rpm for 20 minutes. They were co-incubated with the probe at required concentration in a sealed POC mini chamber, or 8 well confocal chamber. When required the glass coverslip for the POC chamber was coated in fibronectin (for neutrophil experiments) or poly-d-lysine (for bacteria and cell lines) and incubated with cells with one hour at 37° C. to allow adherence prior to bacterial innoculation. Analysis was with ImageJ. Briefly, the Syto channel was automatically thresholded (Huang) and an ROI generated from this. The mean fluorescence intensity on the probe channel within this ROI was quantified. Data presented represents the mean of three separate fields of view."}, "A549 cells": {"test_system": "A549 cells", "assay": "Labelling of A549 cells (confocal)", "assay_type": "cell-based, human", "protocol": "as §2\nA549 cells were grown in Dulbecco's modified Eagle's medium (DMEM) supplemented with 10% fetal bovine serum (FBS), 2 mM L-glutamine, 100 units/mL penicillin G and 100 μg/mL streptomycin to 80% confluence. Cells were dispersed with Trypsin-EDTA and seeded onto glass coverslips or 8 well confocal imaging chambers and grown to confluence in the presence of DMEM.\nas §3"}, "[2]": {"test_system": "pre-labelled bacteria in ovine lung", "assay": "Pre-labelled bacteria instilled into the ovine lung and imaged by FCFM", "source_text": "FIG. 14: NBD-UBIdend and NBD-PMX are resistant to ‘wash off’ allowing detection of bacteria in the ovine lung. […] However, when bacteria pre-labelled with linear NBD-UBINle are instilled, no punctate signal is seen. Labelling was confirmed by imaging bacterial suspensions (left hand panels) before instillation into the lung and imaging by FCFM (right hand panels). Note the lower SNR for NBD-UBINle labelled bacteria in suspension. Representative images shown, n=3 for each experiment.\n(§4) In the distal lung, there is likely to be significant and rapid dissipation of the probes immediately after delivery. Therefore, it is imperative that probe-bacterial labelling remains persistent under these conditions. […] As such, this resistance to ‘wash-off’ represents a surrogate indicator of probe-bacterial affinity which appears to be an absolute requirement for distal lung in situ labelling.\nWe have obtained evidence that the wash-off properties of the probes, most likely related to affinity and/or the nature of subsequent insertion into the bacterial membrane, impact on whether or not they can be used to successfully image in the lung. The retention of labelling upon removal of probe solution was investigated in vitro by confocal. With all of the linear UBI variants labelling was lost completely upon wash-off. […]"}, "bacterial panel": {"test_system": "bacterial panel", "assay": "Retention of labelling upon wash-off (PBS wash) in vitro by confocal", "assay_type": "cell-based", "source_text": "FIG. 15: NBD-UBIdend retains fluorescence when wash performed. A) The bacterial panel was imaged by laser scanning confocal microscopy in the continued presence of NBD-UBIdend (black) and following PBS wash (white).\nas §4\nWe have obtained evidence that the wash-off properties of the probes, most likely related to affinity and/or the nature of subsequent insertion into the bacterial membrane, impact on whether or not they can be used to successfully image in the lung. The retention of labelling upon removal of probe solution was investigated in vitro by confocal. With all of the linear UBI variants labelling was lost completely upon wash-off. […] Bacteria were pre-labelled with these linear NBD-UBINle compounds and successful labelling was confirmed by imaging the bacterial suspension pre-instillation."}, "[3]": {"assay": "Stability in saline or BALF from patients with Acute Lung Injury (MALDI-TOF / FTMS)", "conditions": "incubated for 30 minutes", "protocol": "FIG. 16: NBD-UBIdend is stable in ALI BALF. […] NBD-PMX is stable in ALI BALF.\nSecondly we assessed stability of the probes in broncholalveolar lavage fluid (BALF) from patients with Acute Lung Injury (ALI) by Fourier Transform Mass Spectrometry (FTMS) and Matrix-Assisted Laser Desorption/Ionization Time-of-Flight Mass Spectrometry (MALDI-TOF MS) analysis. NBD-UBINle, NBD-UBIdend and NBD-PMX were incubated for 30 minutes with BALF (FIG. 16).\nas §1\nProbe was added to saline or pooled BALF from patients with ALI incubated for 30 minutes. A ZipTip (C-18, 0.2 μL) with 5 μL MeCN (with 0.1% TFA as an additive) followed by 20 μL of H2O was washed. The ZipTip was loaded with the sample, washed and eluted into 5 μL of 80% aq. MeCN (with 0.1% TFA as an additive). The sample was analysed by MALDI-TOF (PerSeptive Biosystems Voyager DETMSTR MALDI-TOF mass spectrometer (Applied Biosystems, Foster City, Calif.))."}, "[4]": {"test_system": "bacteria on human lung tissue", "assay": "Detection of bacteria in the presence of human lung tissue autofluorescence (FCFM, confocal, FLIM)", "conditions": "FCFM and benchtop confocal", "source_text": "FIG. 21: Bacteria detected in the presence of human lung tissue autofluorescence. […] B) Live confocal microscopy images (merge) showing merge images of nucleic acid counterstain (red) with no NBD-PMX labelling. Bacteria in right panel can be clearly seen, labelled with NBD-PMX and above the background fluorescence.\nFIG. 24: Fluorescence Life Time Imaging easily distinguishes lung tissue from bacteria. […] Imaging performed using NBD-UBIdend and S. aureus on human lung tissue."}, "[5]": {"assay": "Rodent single dose intratracheal toxicity assessment", "assay_type": "in vivo, Mice", "design": "Creatinine / Bilirubin / Albumin: unit not given here"}}, "note": "“Also recorded” adds a separate entry of the source. Bridge positions count the residues as written; N and C are the ends. Square brackets hold non-standard residues; d marks the D form. Peptide text beside a SMILES is read from it. * marks the point of attachment. ξ: configuration not given here. NBD = O=[N+]([O-])c1ccc(*)c2nonc12; dDab = NCC[C@@H](N)C(=O)O; Dab = NCC[C@H](N)C(=O)O; AEEA = NCCOCCOCC(=O)O; ξDab = NCCC(N)C(=O)O", "data": [{"smiles": "CC(C)C[C@@H]1NC(=O)[C@@H](Cc2ccccc2)NC(=O)[C@@H](CCN)NC(=O)C(NC(=O)[C@H](CCN)NC(=O)[C@@H](NC(=O)COCCOCCNc2ccc([N+](=O)[O-])c3nonc23)[C@@H](C)O)CCNC(=O)[C@@H]([C@H](C)O)NC(=O)[C@H](CCN)NC(=O)[C@H](CCN)NC1=O", "note": "(some centres unmarked) [NBD-PMX] ({NBD-AEEA}-T[Dab][ξDab][dDab][dF]L[Dab][Dab][dT]; lactam 3-C)", "values": [{"measurement": "labelling of Gram-positive bacteria", "setting": "[1]; 1 μM", "value": "minimal/no labelling"}, {"measurement": "fluorescence on Gram-negative versus Gram-positive bacteria", "setting": "[1]; 1 μM, p<0.05", "value": "significantly higher fluorescence on Gram-negative bacteria"}, {"measurement": "bacterial labelling", "setting": "[1]; Pseudomonas aeruginosa (PA) incubated with A549 cells", "value": "allows bacterial labelling"}, {"measurement": "labelling of human neutrophils", "setting": "human neutrophils", "value": "no labelling of human neutrophils or A549 cells"}, {"measurement": "labelling of A549 cells", "setting": "A549 cells", "value": "retains selectivity of labeling over mammalian cells; also recorded: no labelling of human neutrophils or A549 cells"}, {"measurement": "detection of pre-labelled bacteria after instillation", "setting": "[2]", "value": "readily visualised"}, {"measurement": "retention of labelling upon wash-off", "setting": "bacterial panel", "value": "resistant to wash-off"}, {"measurement": "stability in ALI BALF", "setting": "[3]", "value": "demonstrate stability"}, {"measurement": "stability in saline", "setting": "[3]", "value": "readily identified in both saline and BALF incubated samples"}, {"measurement": "detection of bacteria above human lung autofluorescence", "setting": "[4]", "value": "demonstrating bacterial signal"}, {"measurement": "ALP", "setting": "[5]; 48 hours", "value": "107.7 ± 17.3", "unit": "u/l"}, {"measurement": "ALT", "setting": "[5]; 48 hours", "value": "36.0 ± 9.0", "unit": "u/l"}, {"measurement": "Albumin", "setting": "[5]; 48 hours", "value": "23.7 ± 0.3"}, {"measurement": "BALF", "setting": "[5]; 48 hours", "value": "509.0 ± 270.2", "unit": "Cells/ul"}, {"measurement": "Bilirubin", "setting": "[5]; 48 hours", "value": "1.2 ± 0.4"}, {"measurement": "Creatinine", "setting": "[5]; 48 hours", "value": "16.3 ± 8.8"}, {"measurement": "Cytospin (% of Neutrophils)", "setting": "[5]; 48 hours", "value": 0, "unit": "%"}, {"measurement": "Cytospin (% of Red Blood Cells)", "setting": "[5]; 48 hours", "value": 3.9, "unit": "%"}, {"measurement": "PenH value", "setting": "[5]; 48 hours", "value": "0.5 ± 0.05"}, {"measurement": "Cytospin (% of Mononuclear cells)", "setting": "[5]; 48 hours, single intratracheal 100 μg/25 g mouse", "value": 96.1, "unit": "%"}, {"measurement": "ALP", "setting": "[5]; 14 days", "value": "126.3 ± 8.5", "unit": "u/l"}, {"measurement": "ALT", "setting": "[5]; 14 days", "value": "40.3 ± 4.8", "unit": "u/l"}, {"measurement": "Albumin", "setting": "[5]; 14 days", "value": "25.3 ± 0.7"}, {"measurement": "BALF", "setting": "[5]; 14 days", "value": "542.0 ± 84.7", "unit": "Cells/ul"}, {"measurement": "Bilirubin", "setting": "[5]; 14 days", "value": "1.2 ± 0.4"}, {"measurement": "Creatinine", "setting": "[5]; 14 days", "value": "9.7 ± 0.3"}, {"measurement": "Cytospin (% of Neutrophils)", "setting": "[5]; 14 days", "value": 0, "unit": "%"}, {"measurement": "Cytospin (% of Red Blood Cells)", "setting": "[5]; 14 days", "value": 2.3, "unit": "%"}, {"measurement": "PenH value", "setting": "[5]; 14 days", "value": "0.5 ± 0.07"}, {"measurement": "Cytospin (% of Mononuclear cells)", "setting": "[5]; 14 days, single intratracheal 100 μg/25 g mouse", "value": 93.0, "unit": "%"}, {"measurement": "organ toxicity (histology)", "setting": "[5]; single instillation, 48 hours and 14 days, compared to PBS control", "value": "no organ toxicity"}, {"measurement": "toxicity", "setting": "[5]; single intratracheal 100 μg/25 g mouse, 48 hours and 14 days", "value": "no toxicity"}]}]}
